This note sets out measurements from the supplement of paper PMC12042874.

± gives the uncertainty stated by the source.

This data set can be described thus: amyloid nucleation score (Sup35N fusion, yeast selection) (log enrichment); library NNK2; higher = more nucleation; inactive = no reads after selection. The gist of the method:
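Nucleation score: DiMSum log enrichment of output over input reads, centred on the mode score of non-aggregating sequences. Only sequences with at least 100 input reads were kept. Reads came from Illumina sequencing of plasmid inserts before and after 7 days of growth at 30°C without adenine and uracil, in psi-negative yeast expressing Sup35N fused to peptides of 20 random codons after 24 hours of induction with 100 μM copper sulfate.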

In turn, TGHWQLQNSSQA gave an amyloid nucleation score of 0.841 ± 0.28.
AISILNCSMMLRIWPSTAAL had an amyloid nucleation score of 0.059 ± 0.5.
Under QSAFSKF stands “inactive”; under HWLNLCP, -0.512 ± 0.48; under IFANVFANWHVGYLFTGSYY, 4.02 ± 0.081.
The result for NMGIFALGAEQD reads -0.039 ± 1.1; that for VTSLHSYSMMFPPMWMSNQS, 1.54 ± 0.32.
As for NMHNTCMYKRKLVMDSSVWL, the amyloid nucleation score entry was “inactive”.
The result for GMNQCCPD reads -0.455 ± 0.61; that for VLSWGFKGNAKPHHTDSLKG, 0.603 ± 0.22.
Under VSTIIWCIR stands 5.143 ± 0.047.
Take AILSNVEVLYTRFRIKSCKL: the amyloid nucleation score is -0.435 ± 0.34.
Under VNFPLVSGG stands 0.114 ± 0.38; under IFASSYVLSHYILGGHRSRK, 2.7 ± 0.1; under VKIWLCATCFMGEDVQETAQ, 7.055 ± 0.044.
Take SKSEIHCYLMMGRHLFG: the amyloid nucleation score was found to be 4.5 ± 0.11.
Under GCVTSGMLMTLIIH stands -0.218 ± 0.48.
Under TRFRRDESRTSEDLRPRNRR stands 1.26 ± 0.23; under IMKYAHFNLK, 0.788 ± 0.51; under RQMDHYQRGFLIIYCQLTDK, “inactive”.
Under YTTQLGWWFFRGRTTLNKWV stands 1.06 ± 0.61; under LFTIVTTFKRS, 6.443 ± 0.056.
IFNVSLGYLTLIMVHYEFLH gave an amyloid nucleation score of 5.733 ± 0.042.
The result for IGFDFRTA reads 0.418 ± 0.62; that for KGCVDHVFIYGIN, -1.44 ± 0.41; that for MLLRHNEPVLLRAHYYRESA, -0.13 ± 0.76.
The result for GVKWSVSFKNWHYWKSMSVV reads 1.26 ± 0.66; that for LKNRILPFSNHELIVAGLGL, -0.388 ± 1; that for RPLFEFWPKPPL, 2.17 ± 0.14.
The result for FSYLAI reads -0.896 ± 0.61; that for LAKRGCVIVCFLTFHYTIRR, -0.348 ± 0.28.
With GTRYSLCTRCG, the amyloid nucleation score is 0.766 ± 0.5.
The result for KLLAVVLFGDGLAFNN reads 3.24 ± 0.064; that for ACDVNWLMNTIHQNNCCFAH, -0.716 ± 1.1.
PMYRILNSTKESSGFALRGP returned an amyloid nucleation score of -0.952 ± 0.45.
The result for CIQIAIYGWFTDTTIRG reads 6.48 ± 0.03.
The result for AIITLYSNHKLYLWALLLDA reads -0.47 ± 1.1.
ICDDNVAVEWLRLTVCTFRL had an amyloid nucleation score of 0.396 ± 0.28.
VYRQNLNLNME returned an amyloid nucleation score of 0.189 ± 0.64.
With FEAINMSQQCIYCFPMSRNI, the amyloid nucleation score worked out at 7.388 ± 0.053.
LFQSLNLISINSVVPYEPVT registered an amyloid nucleation score of 2.43 ± 0.092.
Substance GSCRHHRWGLVRGMFCVSAL displayed an amyloid nucleation score of 1.17 ± 0.42.
Regarding GVDFTWDRGCIGGRGCSSRY, the amyloid nucleation score was 5.956 ± 0.054.
Under APTCSKCCIFMQC stands 5.99 ± 0.072; under IFVLVS, 0.131 ± 0.38; under ANSVNRSKDCTYFVFHRF, 5.436 ± 0.054.
Consider GLYIEKARQRYPRSQHLIAM, for which the amyloid nucleation score was -0.419 ± 0.49.
SGSLSINDNSCYGENTNTVL came in with an amyloid nucleation score of -1.21 ± 1.1.
The result for PMMSIAMCVSSTPLRYFRVR reads 2 ± 0.12; that for LFWFLCNVMERYRWNVDAYR, -0.625 ± 0.45; that for KMPWMTCSHVTFTRIHSKIS, -0.57 ± 0.48.
In turn, KNKWRSMV had an amyloid nucleation score of 0.953 ± 0.18.
The result for NCFNLEKGQMCPDWNGSSYT reads -0.667 ± 0.39; that for SLDGISHHSTDVNLVLNCYR, 5.222 ± 0.045.
FAMNSVSFSAGNFTDSVPWW displayed an amyloid nucleation score of -0.666 ± 0.63.
Under TSTLNRDDG stands 0.367 ± 0.34.
For AFTACRYMVSPFFSLMFSTS, the amyloid nucleation score was 0.265 ± 1.1.
Under GRVFEK stands 4.93 ± 0.077; under LGGVSSHSELMPRVKVNWLT, “inactive”.
In the case of VTYDCL, the amyloid nucleation score result was “inactive”.
Regarding ICCTSSANNSTPPQSCWTPK, the amyloid nucleation score is 5.84 ± 0.076.
Turning to DNCIDSCCYPLVSRVLEL, the amyloid nucleation score was determined as 0.354 ± 0.64.
Under EYHFCTWFRVDIPFVFHDVV stands -0.072 ± 1.1; under MFERINALFNLQ, 3.46 ± 0.14.
Under PAFMSV stands -1.05 ± 0.36.
For CWNDVIQKMVQYNTINFVLS, the amyloid nucleation score amounted to 4.88 ± 0.063.
The result for YGRGWHCTLYCIN reads 0.008 ± 0.8; that for KFILCCLFPTYGREFCTSGL, 8.921 ± 0.068; that for VLFEFTC, 4.33 ± 0.05.
As to TSFNQELEFFLCGGDVDCNR, the amyloid nucleation score was -1.17 ± 1.1.
As for GMVRRQVTLMSSSDRAI, the amyloid nucleation score is -1.07 ± 1.1.
The result for ICSPVQSAPSRAEKND reads -0.297 ± 0.45.
Take SSKSHLSLLK: the amyloid nucleation score was -0.849 ± 0.4.
TYALVTRLFCFLVSEHWVTL showed an amyloid nucleation score of -0.047 ± 0.26.
Substance VRFWSLMCYACFSQSGSRVR had an amyloid nucleation score of 3.91 ± 0.084.
Under SCCYVLKRDFKLMNNVPSGR stands -0.033 ± 0.2.
The result for LAFYSFIRYTRLSIEMVAIS reads -0.741 ± 0.31; that for CQFSTQMMVICSFTTLTSVL, 1.98 ± 0.13; that for CGYLSNRSDNRCDLLYACFR, 0.571 ± 0.36.
The result for TLSCKFIKGWLIQQYSHNKD reads -0.187 ± 0.76; that for YHGYLPD, -0.826 ± 0.63; that for FVKYRSLGKWVLRVTGVMVD, “inactive”.
The substance RYLVVKEQDFPDEYAPY came in with an amyloid nucleation score of -0.271 ± 0.55.
NKGVCDEVSVSSISVAIF: the amyloid nucleation score is -0.093 ± 0.63.
Under IYAQAFFVYHTLFWGGGDQW stands 0.495 ± 0.16; under VYYVSRLLTFFPVSSNPCGS, 0.566 ± 0.56; under ALGSRSTDSGSWITNFLSSR, -0.213 ± 0.79.
Under YARGNFKSLCCPMV stands -0.927 ± 0.78; under RILTVYVPV, 1.19 ± 0.39; under FRAFLQITLILNCGSSASDV, 3.45 ± 0.11.
Under LRSYWSGIGTTGPV stands 4.57 ± 0.1; under IIKANVSVRYVFDKFHKMVH, 2.83 ± 0.094.
On to VTMYPFRRIVGRQQLMAWLY, for which the amyloid nucleation score was 0.973 ± 0.38.
Under KCSTVYASGFWLPWTVVPGR stands 0.418 ± 0.26; under RCEFFGVGMSREKNMGCSKC, 0.875 ± 0.47; under HWYTAMVYIFKRQD, 0.974 ± 0.091.
GSPAVGEGG showed an amyloid nucleation score of 0.697 ± 0.81.
Under EVCMWIPHTAVRLYQS stands 1.15 ± 0.23; under LRLSSGLKSVRTRRRM, 0.904 ± 0.37; under YVVKWPCGLTPCALPTPIRQ, 0.969 ± 0.21.
With LRTQSILYLRRMG, the amyloid nucleation score was -0.164 ± 0.32.
The result for CYLGVKCVLGWQSWRVVYSN reads “inactive”; that for FCRSVILSVQMLFKYAIYRF, -1.37 ± 1.1; that for EMDNGDSGTVW, -0.186 ± 0.76.
